This is an account of results in paper PMC11328107.

As usually defined, the pKd is −log10 of the Kd, conventionally taken in molar units. As usually defined, the pIC50 is −log10 of the IC50, conventionally taken in molar units. Lower therefore signals a large IC50.

Assay [1] has as its target PCSK9 (Homo sapiens) (UniProt Q8NBP7). As to conditions: cited from earlier work.
Assay [2] has as its target proprotein convertase subtilisin/kexin type 9 (PCSK9) (UniProt Q8NBP7).
The target is the same in assay [3]. This is another data set of the same source.
Assay [4] addresses His‐tagged PCSK9 of the CircuLex PCSK9‐LDLR in vitro binding assay kit (UniProt Q8NBP7). Kind of assay: ELISA; CircuLex PCSK9-LDLR binding kit; LDLR-AB domain immobilised on the plate; His-tagged PCSK9 70 ng/mL alone or preincubated with HFn-Pep2-8 1–280 nM; 2 h; detected by biotinylated anti-His antibody. For orientation: An ELISA detects its analyte on a solid surface through an enzyme-linked reagent.

Assay [5] concerns the target transferrin receptor 1 (CD71), His‐tagged (UniProt P02786). The assay is described as follows: BLI; Octet N1; His-tagged CD71 immobilised on Ni-NTA tip; HFn-Pep2-8 2.5–1580 nM; PBS with 0.02% Tween 20, 0.1% BSA, 0.05% NaN3; KD from plateau values (steady state). In general terms: In BLI a coated tip is dipped into the sample, and binding shifts an interference pattern.

pIC50, pKd: −log10 of the molar value.

Sequence of proprotein convertase subtilisin/kexin type 9 (PCSK9) (Q8NBP7 153-692): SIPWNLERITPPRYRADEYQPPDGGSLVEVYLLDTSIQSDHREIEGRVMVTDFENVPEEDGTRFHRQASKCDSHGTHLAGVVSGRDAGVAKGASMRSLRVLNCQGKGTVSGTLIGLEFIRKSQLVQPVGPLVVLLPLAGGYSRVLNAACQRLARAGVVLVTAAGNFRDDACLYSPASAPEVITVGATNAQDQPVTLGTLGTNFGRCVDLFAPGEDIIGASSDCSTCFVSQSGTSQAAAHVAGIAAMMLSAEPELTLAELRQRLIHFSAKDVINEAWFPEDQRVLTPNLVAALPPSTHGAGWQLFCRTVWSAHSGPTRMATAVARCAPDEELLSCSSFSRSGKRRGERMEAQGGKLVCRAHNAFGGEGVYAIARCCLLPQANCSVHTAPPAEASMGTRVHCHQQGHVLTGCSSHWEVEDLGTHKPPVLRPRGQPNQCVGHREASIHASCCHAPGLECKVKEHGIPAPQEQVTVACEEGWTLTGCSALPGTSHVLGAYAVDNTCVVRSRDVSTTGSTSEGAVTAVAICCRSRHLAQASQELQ
Sequence of transferrin receptor 1 (CD71), His‐tagged (P02786 whole entry): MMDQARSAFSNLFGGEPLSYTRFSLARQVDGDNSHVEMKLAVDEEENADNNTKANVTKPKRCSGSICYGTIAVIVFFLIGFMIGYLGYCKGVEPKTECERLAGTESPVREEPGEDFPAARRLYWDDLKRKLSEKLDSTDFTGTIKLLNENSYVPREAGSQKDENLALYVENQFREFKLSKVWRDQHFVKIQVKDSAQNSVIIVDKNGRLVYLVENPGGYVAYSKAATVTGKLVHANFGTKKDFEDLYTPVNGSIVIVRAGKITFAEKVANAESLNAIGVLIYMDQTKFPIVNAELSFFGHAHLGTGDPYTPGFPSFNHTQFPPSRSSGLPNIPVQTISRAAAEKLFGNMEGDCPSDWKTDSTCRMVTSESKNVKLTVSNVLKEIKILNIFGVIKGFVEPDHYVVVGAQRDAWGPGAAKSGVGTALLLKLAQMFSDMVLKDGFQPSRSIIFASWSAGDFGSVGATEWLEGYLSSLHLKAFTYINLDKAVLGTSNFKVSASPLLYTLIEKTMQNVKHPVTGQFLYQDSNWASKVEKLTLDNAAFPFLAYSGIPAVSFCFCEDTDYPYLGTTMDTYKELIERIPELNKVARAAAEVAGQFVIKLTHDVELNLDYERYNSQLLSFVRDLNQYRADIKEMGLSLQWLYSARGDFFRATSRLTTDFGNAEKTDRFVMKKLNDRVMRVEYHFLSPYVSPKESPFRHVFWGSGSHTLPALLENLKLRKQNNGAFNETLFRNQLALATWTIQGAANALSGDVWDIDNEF
Sequence of PCSK9 (Homo sapiens) (Q8NBP7 153-692): as the sequence (Q8NBP7 153-692) above
Sequence of His‐tagged PCSK9 of the CircuLex PCSK9‐LDLR in vitro binding assay kit (Q8NBP7 153-692): as above

Regarding Alirocumab, in assay [1], the pKd was 9.28.
Turning to “HFn‐Pep2‐8 (human H ferritin with Pep2‐8 and a four‐glycine linker fused to the N‐terminus of each subunit) (designed binder)”, in assay [2], the LDLR at the plasma membrane of HepG2 cells (immunofluorescence, MFI) after 8 h with 7 μg/mL PCSK9 plus 0.1 or 1 μM HFn-Pep2-8; blocks PCSK9 binding to LDLR came to 90%. Moreover, the Dil-LDL uptake by HepG2 cells (MFI) with 7 μg/mL PCSK9 plus 0.1 μM (81.12%) or 1 μM HFn-Pep2-8; blocks PCSK9 binding to LDLR in assay [3] turned out to be 117%. Besides, the pIC50 in assay [4] is 7.10.
In assay [5], “HFn‐Pep2‐8 (human H ferritin with Pep2‐8 and a four‐glycine linker fused to the N‐terminus of each subunit) (designed binder; other documents disagree on this pair)” showed a pKd of 7.57.
